The target of the data set is APP695 with C-terminal dilysine and the mutation KM-DA594-597 to SYEA594-597, expressed in HEK 293 derivative cells, P05067.
Sequence of APP695 with C-terminal dilysine and the mutation KM-DA594-597 to SYEA594-597, expressed in HEK 293 derivative cells, P05067 (P05067 whole entry, looked up, change not shown, tested part not stated): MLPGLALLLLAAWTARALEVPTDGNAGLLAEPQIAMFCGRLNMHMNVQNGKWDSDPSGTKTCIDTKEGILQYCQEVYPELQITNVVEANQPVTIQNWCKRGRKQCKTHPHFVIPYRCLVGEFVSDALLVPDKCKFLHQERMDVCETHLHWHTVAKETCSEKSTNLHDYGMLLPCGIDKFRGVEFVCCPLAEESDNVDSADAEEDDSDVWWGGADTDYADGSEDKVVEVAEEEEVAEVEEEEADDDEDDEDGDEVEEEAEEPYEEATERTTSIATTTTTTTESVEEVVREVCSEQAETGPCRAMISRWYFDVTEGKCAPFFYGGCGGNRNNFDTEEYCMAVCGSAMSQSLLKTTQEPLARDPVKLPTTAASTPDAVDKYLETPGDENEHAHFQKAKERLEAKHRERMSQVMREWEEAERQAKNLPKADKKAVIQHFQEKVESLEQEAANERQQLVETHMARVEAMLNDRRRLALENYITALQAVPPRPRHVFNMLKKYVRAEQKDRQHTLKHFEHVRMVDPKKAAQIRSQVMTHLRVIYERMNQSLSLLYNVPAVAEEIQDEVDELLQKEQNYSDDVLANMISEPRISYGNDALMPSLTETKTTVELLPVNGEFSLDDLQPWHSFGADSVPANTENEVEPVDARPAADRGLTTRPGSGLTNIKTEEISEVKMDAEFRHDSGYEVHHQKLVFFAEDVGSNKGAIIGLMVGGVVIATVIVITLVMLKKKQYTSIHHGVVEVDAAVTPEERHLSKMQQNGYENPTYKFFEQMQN

B1: Hu-Asp2 expressed in a stable HEK-293 derivative cell line (higher levels of Hu-Asp2) (protein)
chain: ETDEEPEEPGRRGSFVEMVDNLRGKSGQGYYVEMTVGSPPQTLNILVDTGSSNFAVGAAPHPFLHRYYQRQLSSTYRDLRKGVYVPYTQGKWEGELGTDLVSIPHGPNVTVRANIAAITESDKFFINGSNWEGILGLAYAEIARPDDSLEPFFDSLVKQTHVPNLFSLHLCGAGFPLNQSEVLASVGGSMIIGGIDHSLYTGSLWYTPIRREWYYEVIIVRVEINGQDLKMDCKEYNYDKSIVDSGTTNLRLPKKVFEAAVKSIKAASSTEKFPDGFWLGEQLVCWQAGTTPWNIFPVISLYLMGEVTNQSFRITILPQQYLRPVEDVATSQDDCYKFAISQSSTGTVMGAVIMEGFYVVFDRARKRIGFAVSACHVHDEFRTAAVEGPFVTLDMEDCGYNIPQTDESTLMTIAYVMAAICALFMLPLCLMVCQWRCLRCLRQQHDDFADDISLLK
On to B1, for which the “production of the β-secretase cleavage product CTF-99 (Western blot with antibody C8)” value is recorded as “both mutant APP variants were proficiently cleaved by Asp2”.

The values are drawn from patent publication US20030017991.
